# Experimental data reported in PMC4526114, “Structure and vascular function of MEKK3–cerebral cavernous malformations 2 complex” (Nature Communications, 2015).
# B1: GST–MEKK3^NPB1 (domain or fragment, human, UniProt Q99759 1-124, looked up)
# chain: MDEQEALNSIMNDLVALQMNRRHRMPGYETMKNKDTGHSNRQSDVRIKFEHNGERRIIAFSRPVKYEDVEHKVTTVFGQPLDLHYMNNELSILLKNQDDLDKAIDILDRSSSMKSLRILLLSQD
# notes: MEKK3 (MAP3K3), human, residues 1–124 (N-terminal helix and PB1 domain); GST-pCDF vector; also called GST–MEKK3^NPB1: 1–124
# B2: CCM2^HHD (domain or fragment, human)
# chain: GSSKTISESELSASATELLQDYMLTLRTKLSSQEIQQFAALLHEYRNGASIHEFCINLRQLYGDSRKFLLLGLRPFIPEKDSQHFENFLETIGVKDGRG
# notes: CCM2, human, residues 283–379 (harmonin homology domain); also called CCM2 harmonin homology domain; CCM2^HHD: 283–379; source: E. coli Rosetta (DE3), purified (HisTrap, TEV cleavage, size exclusion); not shown: His6, N-terminal, cleaved
# Columns and labels:
# Conditions in all cases: both partners purified
# CCM2^FL = molecular target: T1, CCM2^FL (human, UniProt Q9BSQ5 1-438); assay: pull-down; GST fusions of MEKK3 immobilised on glutathione Sepharose-4B beads; 5 μl bead slurry and 60 μg purified CCM2 in 500 μl, 4 °C, 2 h; 150 mM NaCl, 50 mM Tris pH 7.5, 0.1% Triton-X100; Coomassie-stained SDS–PAGE of washed beads
# T1 construct: CCM2, human, residues 1–438; also called full-length CCM2; CCM2^FL: 1–438; source: purified; not shown: His tag, N-terminal, cleaved
# T1 sequence (Q9BSQ5 other isoform, or with tags, fused parts or gaps): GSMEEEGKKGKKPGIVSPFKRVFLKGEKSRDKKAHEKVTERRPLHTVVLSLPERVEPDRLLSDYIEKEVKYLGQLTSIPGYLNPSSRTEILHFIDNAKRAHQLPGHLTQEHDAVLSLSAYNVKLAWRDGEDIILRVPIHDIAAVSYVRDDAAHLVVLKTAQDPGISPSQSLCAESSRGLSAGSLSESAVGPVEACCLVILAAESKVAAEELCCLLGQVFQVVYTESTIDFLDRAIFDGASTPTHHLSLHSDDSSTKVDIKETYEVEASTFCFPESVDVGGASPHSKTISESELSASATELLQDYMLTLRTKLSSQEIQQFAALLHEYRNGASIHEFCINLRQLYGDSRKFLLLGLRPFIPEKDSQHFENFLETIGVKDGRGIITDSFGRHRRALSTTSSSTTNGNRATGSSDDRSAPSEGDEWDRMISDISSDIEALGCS
# MEKK3^NPB1 [1] = molecular target: T2, MEKK3^NPB1 (human, UniProt Q99759 1-124); assay: SEC-MALS; CCM2^HHD:MEKK3^NPB1 complex used for crystallization, 100 μl of 1.5 mg ml^-1 in 150 mM NaCl, 20 mM Tris pH 8.0, 0.02% sodium azide
# T2 construct: MEKK3 (MAP3K3), human, residues 1–124 (N-terminal helix and PB1 domain); also called N terminus of MEKK3; 6 × His–MEKK3^NPB1 (before cleavage); not shown: His6, N-terminal, cleaved
# T2 sequence: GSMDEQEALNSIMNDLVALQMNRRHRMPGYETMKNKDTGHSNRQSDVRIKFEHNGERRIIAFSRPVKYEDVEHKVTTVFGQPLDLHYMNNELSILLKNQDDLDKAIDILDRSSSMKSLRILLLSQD
# MEKK3^NPB1 [2] = molecular target: T2, MEKK3^NPB1; assay: ITC; CCM2^HHD injected into MEKK3^NPB1 in 20 2.5-μl injections at 25 °C; 150 mM NaCl, 50 mM HEPES pH 7.5; nano-ITC; 'observed Kd'
Binder,binding result (CCM2^FL),stoichiometry N (MEKK3^NPB1 [1]),Kd (MEKK3^NPB1 [2])
B1,binds,–,–
B2,–,1,1400 ± 400 nM
